According to patent US20160024487:
Positions count from the first letter of the chain named.

Columns and labels:
[1] = molecular target: T1, Lys(Dnp)-DQVTVAMTPRIVGG-Lys(Abz)
T1 chain: KDQVTVAMTPRIVGGK

[2] = molecular target: T2, Lys(Dnp)-STPSILPAPRIVGG-Lys(Abz)
T2 chain: KSTPSILPAPRIVGGK

[3] = molecular target: T3, Lys(Dnp)-TNATLDPRIVGG-Lys(Abz)
T3 chain: KTNATLDPRIVGGK

[4] = molecular target: T4, Lys(Dnp)-EDSDRAIEGRIVGG-Lys(Abz)
T4 chain: KEDSDRAIEGRIVGGK

[5] = molecular target: T5, Lys(Dnp)-NRLAAALGIRIVGG-Lys(Abz)
T5 chain: KNRLAAALGIRIVGGK

[6] = molecular target: T6, Lys(Dnp)-ATNATDSPRIVGG-Lys(Abz)
T6 chain: KATNATDSPRIVGGK

[7] = molecular target: T7, Lys(Dnp)-PDNIAAWYLRIVGG-Lys(Abz)
T7 chain: KPDNIAAWYLRIVGGK

[8] = molecular target: T8, Lys(Dnp)-ATNATENPRIVGG-Lys(Abz)
T8 chain: KATNATENPRIVGGK

[9] = molecular target: T9, Lys(Dnp)-ATNATDIPRIVGG-Lys(Abz)
T9 chain: KATNATDIPRIVGGK

[10] = molecular target: T10, Lys(Dnp)-YDEDENQSPRIVGG-Lys(Abz)
T10 chain: KYDEDENQSPRIVGGK

[11] = molecular target: T11, Lys(Dnp)-ATNATDWPRIVGG-Lys(Abz)
T11 chain: KATNATDWPRIVGGK

[12] = molecular target: T12, Lys(Dnp)-ATNATNPPRIVGG-Lys(Abz)
T12 chain: KATNATNPPRIVGGK

[13] = molecular target: T13, Lys(Dnp)-ATNATLPPRIVGG-Lys(Abz)
T13 chain: KATNATLPPRIVGGK

[14] = molecular target: T14, Lys(Dnp)-EDQEDQVDPRIVGG-Lys(Abz)
T14 chain: KEDQEDQVDPRIVGGK

[15] = molecular target: T15, Lys(Dnp)-NLAKPTLPIKIVGG-Lys(Abz)
T15 chain: KNLAKPTLPIKIVGGK

[16] = molecular target: T16, Lys(Dnp)-DFLAEGGGPRIVGG-Lys(Abz)
T16 chain: KDFLAEGGGPRIVGGK

[17] = molecular target: T17, Lys(Dnp)-ATNATQPPRIVGG-Lys(Abz)
T17 chain: KATNATQPPRIVGGK

[18] = molecular target: T18, Lys(Dnp)-ATNATRQPRIVGG-Lys(Abz)
T18 chain: KATNATRQPRIVGGK

[19] = molecular target: T19, Lys(Dnp)-ATNATKPPRIVGG-Lys(Abz)
T19 chain: KATNATKPPRIVGGK

[20] = molecular target: T20, Lys(Dnp)-DNEEGFFSARIVGG-Lys(Abz)
T20 chain: KDNEEGFFSARIVGGK

[21] = molecular target: T21, Lys(Dnp)-ATLDPRIVGG-Lys(Abz)
T21 chain: KATLDPRIVGGK

[22] = molecular target: T22, Lys(Dnp)-ATNATNDPRIVGG-Lys(Abz)
T22 chain: KATNATNDPRIVGGK

[23] = molecular target: T23, Lys(Dnp)-ATNATDPPRIVGG-Lys(Abz)
T23 chain: KATNATDPPRIVGGK

[24] = molecular target: T24, Lys(Dnp)-NESTTKIKPRIVGG-Lys(Abz)
T24 chain: KNESTTKIKPRIVGGK

[25] = molecular target: T25, Lys(Dnp)-ATNATDKPRIVGG-Lys(Abz)
T25 chain: KATNATDKPRIVGGK

[26] = molecular target: T26, Lys(Dnp)-SEYQTFFNPRIVGG-Lys(Abz)
T26 chain: KSEYQTFFNPRIVGGK

[27] = molecular target: T27, Lys(Dnp)-TVELQGVVPRIVGG-Lys(Abz)
T27 chain: KTVELQGVVPRIVGGK

[28] = molecular target: T28, Lys(Dnp)-RGDSVVYGLRIVGG-Lys(Abz)
T28 chain: KRGDSVVYGLRIVGGK

[29] = molecular target: T29, Lys(Dnp)-HTHHAPLSPRIVGG-Lys(Abz)
T29 chain: KHTHHAPLSPRIVGGK

[30] = molecular target: T30, Lys(Dnp)-QISNDTVSPRIVGG-Lys(Abz)
T30 chain: KQISNDTVSPRIVGGK

[31] = molecular target: T31, Lys(Dnp)-ASTAVVIAGRIVGG-Lys(Abz)
T31 chain: KASTAVVIAGRIVGGK

[32] = molecular target: T32, Lys(Dnp)-DFLAEGGGVRIVGG-Lys(Abz)
T32 chain: KDFLAEGGGVRIVGGK

[33] = molecular target: T33, Lys(Dnp)-LSKNNAIEPRIVGG-Lys(Abz)
T33 chain: KLSKNNAIEPRIVGGK

[34] = molecular target: human α-thrombin (FIIa), P00734

B1: Human plasma purified Factor Xa (Molecular Innovations, Inc) (protein)
chain 1: ANSFLEEMKKGHLERECMEETCSYEEAREVFEDSDKTNEFWNKYKDGDQCETSPCQNQGKCKDGLGEYTCTCLEGFEGKNCELFTRKLCSLDNGDCDQFCHEEQNSVVCSCARGYTLADNGKACIPTGPYPCGKQTLERRKR
chain 2: IVGGQECKDGECPWQALLINEENEGFCGGTILSEFYILTAAHCLYQAKRFKVRVGDRNTEQEEGGEAVHEVEVVIKHNRFTKETYDFDIAVLRLKTPITFRMNVAPACLPERDWAESTLMTQKTGIVSGFGRTHEKGRQSTRLKMLEVPYVDRNSCKLSSSFIITQNMFCAGYDTKQEDACQGDSGGPHVTRFKDTYFVTGIVSWGEGCARKGKYGIYTKVTAFLKWIDRSMKTRGLPKAKSHAPEVITSSPLK
[1]
  FXa kcat/KM: 470 M⁻¹ s⁻¹
[2]
  FXa kcat/KM: 230 M⁻¹ s⁻¹
[3]
  FXa kcat/KM: 860 M⁻¹ s⁻¹
[4]
  FXa kcat/KM: 1900 M⁻¹ s⁻¹
[5]
  FXa kcat/KM: 350 M⁻¹ s⁻¹
[6]
  FXa kcat/KM: 4.4 M⁻¹ s⁻¹
[7]
  FXa kcat/KM: 15 M⁻¹ s⁻¹
[8]
  FXa kcat/KM: 3.3 M⁻¹ s⁻¹
[9]
  FXa kcat/KM: 41 M⁻¹ s⁻¹
[10]
  FXa kcat/KM: 320 M⁻¹ s⁻¹
[11]
  FXa kcat/KM: 7.2 M⁻¹ s⁻¹
[12]
  FXa kcat/KM: 2.9 M⁻¹ s⁻¹
[13]
  FXa kcat/KM: 1.6 M⁻¹ s⁻¹
[14]
  FXa kcat/KM: 13 M⁻¹ s⁻¹
[15]
  FXa kcat/KM: 3 M⁻¹ s⁻¹
[16]
  FXa kcat/KM: 5.8 M⁻¹ s⁻¹
[17]
  FXa kcat/KM: 9.5 M⁻¹ s⁻¹
[18]
  FXa kcat/KM: 4500 M⁻¹ s⁻¹
[19]
  FXa kcat/KM: 8.7 M⁻¹ s⁻¹
[20]
  FXa kcat/KM: 230 M⁻¹ s⁻¹
[21]
  FXa kcat/KM: 940 M⁻¹ s⁻¹
[22]
  FXa kcat/KM: 30 M⁻¹ s⁻¹
[23]
  FXa kcat/KM: 1.6 M⁻¹ s⁻¹
[24]
  FXa kcat/KM: 36 M⁻¹ s⁻¹
[25]
  FXa kcat/KM: 11 M⁻¹ s⁻¹
[26]
  FXa kcat/KM: 140 M⁻¹ s⁻¹
[27]
  FXa kcat/KM: 100 M⁻¹ s⁻¹
[28]
  FXa kcat/KM: 1.7 M⁻¹ s⁻¹
[29]
  FXa kcat/KM: 100 M⁻¹ s⁻¹
[30]
  FXa kcat/KM: 340 M⁻¹ s⁻¹
[31]
  FXa kcat/KM: 2.1 M⁻¹ s⁻¹
[32]
  FXa kcat/KM: 3.4 M⁻¹ s⁻¹
[33]
  FXa kcat/KM: 1000 M⁻¹ s⁻¹

B2: FX [191-194]>[NATLMPR]-HPC4 (protein)
chain: ANSFLEEMKKGHLERECMEETCSYEEAREVFEDSDKTNEFWNKYKDGDQCETSPCQNQGKCKDGLGEYTCTCLEGFEGKNCELFTRKLCSLDNGDCDQFCHEEQNSVVCSCARGYTLADNGKACIPTGPYPCGKQTLERRKRSVAQATSSSGEAPDSITWKPYDAADLDPTENPFDLLDFNQTQPERGDNNATLMPRIVGGQECKDGECPWQALLINEENEGFCGGTILSEFYILTAAHCLYQAKRFKVRVGDRNTEQEEGGEAVHEVEVVIKHNRFTKETYDFDIAVLRLKTPITFRMNVAPACLPERDWAESTLMTQKTGIVSGFGRTHEKGRQSTRLKMLEVPYVDRNSCKLSSSFIITQNMFCAGYDTKQEDACQGDSGGPHVTRFKDTYFVTGIVSWGEGCARKGKYGIYTKVTAFLKWIDRSMKTRGLPKAKSHAPEVITSSPLKDQVDPRLIDGK
[34]
  kcat/KM: No Activity

B3: FX [191-194]>[NATMMPR]-HPC4 (protein)
chain: B2 chain with L194M
[34]
  kcat/KM: No Activity

B4: FX [191-194]>[NATIKPR]-HPC4 (protein)
chain: B2 chain with L194I, M195K
[34]
  kcat/KM: No Activity

B5: FX [191-194]>[NATLEPR]-HPC4 (protein)
chain: B2 chain with M195E
[34]
  kcat/KM: No Activity

B6: FX [191-194]>[NATIRPR]-HPC4 (protein)
chain: B2 chain with L194I, M195R
[34]
  kcat/KM: No Activity

B7: FX [191-194]>[NATLRPR]-HPC4 (protein)
chain: B2 chain with M195R
[34]
  kcat/KM: No Activity

B8: FX [191-194]>[NATDTPR]-HPC4 (protein)
chain: B2 chain with L194D, M195T
[34]
  kcat/KM: No Activity
